This note sets out measurements from the Human Domainome abundance scans (Beltran et al. 2025).

± gives the uncertainty stated by the source.

First the molecules themselves.
B1: Pituitary-specific positive transcription factor 1, residues 130 to 198; numbered along this chain, P28069 (parent)
chain: RELEKFANEFKVRRIKLGYTQTNVGEALAAVHGSEFSQTTICRFENLQLSFKNACKLKAILSKWLEEAE

Variants of B1 are the subject of the data set. The data set can be described thus: abundance fitness (aPCA) (normalised: wild type 0, dead -1); higher = more abundant; growth selection in yeast, the domain comes from the species named. As to conditions: Homo sapiens.
With RELEKFANEFKVRRIKLGYTQTNVGEALAAVHGSEFSQTTICRFENLQLSFKNACKYKAILSKWLEEAE [L57Y], the abundance fitness was -0.156 ± 0.12. As for RELEKFANEFKVRRIKLGYTQTNVGEALAAVHGSEFSQTTICRFENLQLSFKNACKLKAIQSKWLEEAE [L61Q], the figure is -0.78 ± 0.18. For RELEKFANEFKVRRIKLGYTQTNVGEALAAVHGSEFSQTTICRFENLQLSFKNACKLKAISSKWLEEAE [L61S], the abundance fitness was -0.815 ± 0.14. Take RELEKFANEFKVRRIKLGYTQTNVGEALAAVHGSEFSQTTICRFENLQLSFKNACKLKAIRSKWLEEAE [L61R]: the abundance fitness was -1.04 ± 0.18. In the case of RELEKFANEFKVRRIKLGYTQTNVGEALAAVHGSEFSQTTICRFENLQLSFKNACKLKAITSKWLEEAE [L61T], the abundance fitness is -0.778 ± 0.18. For the variant RELEKFANEFKVRRIKLGYTQTNVGEALAAVHGSEFSQTTICRFENLQLSFKNACKLKAIESKWLEEAE [L61E], the abundance fitness is -0.604 ± 0.18. Take RELEKFANEFKVRRIKLGYTQTNVGEALAAVHGSEFSQTTICRFENLQLSFKNACKLKAICSKWLEEAE [L61C]: the abundance fitness is -0.379 ± 0.19. As for RELEKFANEFKVRRIKLGYTQTNVGEALAAVHGSEFSQTTICRFENLQLSFKNACKLKAIPSKWLEEAE [L61P], the figure is -0.728 ± 0.3; as for RELEKFANEFKVRRIKLGYTQTNVGEALAAVHGSEFSQTTICRFENLQLSFKNACKLKAIGSKWLEEAE [L61G], -0.757 ± 0.11.

Turning to RELEKFANEFKVRRIKLGYTQTNVGEALAAVHGSEFSQTTICRFENLQLSFKNACKLKAIDSKWLEEAE [L61D], the abundance fitness is -0.788 ± 0.28. Then RELEKFANEFKVRRIKLGYTQTNVGEALAAVHGSEFSQTTICRFENLQLSFKNACKLKAIISKWLEEAE [L61I], with -0.841 ± 0.24. In the case of RELEKFANEFKVRRIKLGYTQTNVGEALAAVHGSEFSQTTICRFENLQLSFKNACKLKAIYSKWLEEAE [L61Y], the abundance fitness was -0.759 ± 0.13. RELEKFANEFKVRRIKLGYTQTNVGEALAAVHGSEFSQTTICRFENLQLSFKNACKLKAIMSKWLEEAE [L61M]: the abundance fitness is -0.491 ± 0.097. Then RELEKFANEFKVRRIKLGYTQTNVGEALAAVHGSEFSQTTICRFENLQLSFKNACKLKAIFSKWLEEAE [L61F], with -0.536 ± 0.12. As to RELEKFANEFKVRRIKLGYTQTNVGEALAAVHGSEFSQTTICRFENLQLSFKNACKLKAIKSKWLEEAE [L61K], the abundance fitness is -0.572 ± 0.16.

Regarding RELEKFANEFKVRRIKLGYTQTNVGEALAAVHGSEFSQTTICRFENLQLSFKNACKLPAILSKWLEEAE [K58P], the abundance fitness was -0.708 ± 0.17. RELEKFANEFKVRRIKLGYTQTNVGEALAAVHGSEFSQTTICRFENLQLSFKNACKLTAILSKWLEEAE [K58T]: the abundance fitness is -0.477 ± 0.072. For the variant RELEKFANEFKVRRIKLGYTQTNVGEALAAVHGSEFSQTTICRFENLQLSFKNACKLFAILSKWLEEAE [K58F], the abundance fitness is -0.933 ± 0.26. Take RELEKFANEFKVRRIKLGYTQTNVGEALAAVHGSEFSQTTICRFENLQLSFKNACKLEAILSKWLEEAE [K58E]: the abundance fitness is -0.738 ± 0.093.

Turning to RELEKFANEFKVRRIKLGYTQTNVGEALAAVHGSEFSQTTICRFENLQLSFKNACKLIAILSKWLEEAE [K58I], the abundance fitness is -0.984 ± 0.24.

For the variant RELEKFANEFKVRRIKLGYTQTNVGEALAAVHGSEFSQTTICRFENLQLSFKNACKLYAILSKWLEEAE [K58Y], the abundance fitness is -0.511 ± 0.098. As to RELEKFANEFKVRRIKLGYTQTNVGEALAAVHGSEFSQTTICRFENLQLSFKNACKLWAILSKWLEEAE [K58W], the abundance fitness is -0.342 ± 0.11. RELEKFANEFKVRRIKLGYTQTNVGEALAAVHGSEFSQTTICRFENLQLSFKNACKLHAILSKWLEEAE [K58H]: the abundance fitness was -0.4 ± 0.14. In the case of RELEKFANEFKVRRIKLGYTQTNVGEALAAVHGSEFSQTTICRFENLQLSFKNACKLRAILSKWLEEAE [K58R], the abundance fitness is -0.184 ± 0.067. For RELEKFANEFKVRRIKLGYTQTNVGEALAAVHGSEFSQTTICRFENLQLSFKNACKLAAILSKWLEEAE [K58A], the abundance fitness was -0.473 ± 0.07.

With RELEKFANEFKVRRIKLGYTQTNVGEALAAVHGSEFSQTTICRFENLQLSFKNACKLNAILSKWLEEAE [K58N], the abundance fitness is -0.619 ± 0.11.

In the case of RELEKFANEFKVRRIKLGYTQTNVGEALAAVHGSEFSQTTICRFENLQLSFKNACKLGAILSKWLEEAE [K58G], the abundance fitness is -0.652 ± 0.095. On to RELEKFANEFKVRRIKLGYTQTNVGEALAAVHGSEFSQTTICRFENLQLSFKNACKLMAILSKWLEEAE [K58M], for which the abundance fitness was -0.151 ± 0.059. With RELEKFANEFKVRRIKLGYTQTNVGEALAAVHGSEFSQTTICRFENLQLSFKNACKLLAILSKWLEEAE [K58L], the abundance fitness was -0.848 ± 0.081.

Consider RELEKFANEFKVRRIKLGYTQTNVGEALAAVHGSEFSQTTICRFENLQLSFKNACKLSAILSKWLEEAE [K58S], for which the abundance fitness is -0.58 ± 0.069. For the variant RELEKFANEFKVRRIKLGYTQTNVGEALAAVHGSEFSQTTICRFENLQLSFKNACKLDAILSKWLEEAE [K58D], the abundance fitness was -0.652 ± 0.26. For the variant RELEKFANEFKVRRIKLGYTQTNVGEALAAVHGSEFSQTTICRFENLQLSFKNACKLQAILSKWLEEAE [K58Q], the abundance fitness was -0.019 ± 0.088.

As for RELEKFANEFKVRRIKLGYTQTNVGEALAAVHGSEFSQTTICRFENLQLSFKNACKLKAILEKWLEEAE [S62E], the abundance fitness amounted to 0.016 ± 0.087. Then RELEKFANEFKVRRIKLGYTQTNVGEALAAVHGSEFSQTTICRFENLQLSFKNACKLKAILCKWLEEAE [S62C], with -0.3 ± 0.062. Take RELEKFANEFKVRRIKLGYTQTNVGEALAAVHGSEFSQTTICRFENLQLSFKNACKLKAILGKWLEEAE [S62G]: the abundance fitness was -0.239 ± 0.11. Consider RELEKFANEFKVRRIKLGYTQTNVGEALAAVHGSEFSQTTICRFENLQLSFKNACKLKAILAKWLEEAE [S62A], for which the abundance fitness was -0.015 ± 0.072. For the variant RELEKFANEFKVRRIKLGYTQTNVGEALAAVHGSEFSQTTICRFENLQLSFKNACKLKAILKKWLEEAE [S62K], the abundance fitness was -0.3 ± 0.12. Turning to RELEKFANEFKVRRIKLGYTQTNVGEALAAVHGSEFSQTTICRFENLQLSFKNACKLKAILFKWLEEAE [S62F], the abundance fitness is -0.059 ± 0.056.

Regarding RELEKFANEFKVRRIKLGYTQTNVGEALAAVHGSEFSQTTICRFENLQLSFKNACKLKAILHKWLEEAE [S62H], the abundance fitness was -0.127 ± 0.12.
